Measured values as given in the supplement of paper PMC9112550, “Optimization of the antimicrobial peptide Bac7 by deep mutational scanning” (BMC Biology, 2022).

These sequences were tested on Escherichia coli TOP10 (assay: shrunken log2 fold change of peptide-encoding DNA abundance (4.5 h post-induction vs induction); higher = less antimicrobial activity (less host growth inhibition)). Settings: time post-induction: 4.5 h; library: site-saturation at positions 5, 18, 19, 20.
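Note: peptides expressed intracellularly from a pBAD plasmid library in pooled LB shake-flask culture, induced with 0.3% L-arabinose, DNA abundance read by NGS, three biological replicates, DESeq2 with apeglm shrinkage.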

Sequence	shrunken log2 fold change
RRIRYRPPRLPRPRPRPEMEPRP	-0.0352
RRIRPRPPRLPRPRPRPSWLPRP	-0.0766
RRIRSRPPRLPRPRPRPFHCPRP	-0.0582
RRIRVRPPRLPRPRPRPLVNPRP	-0.244
RRIRGRPPRLPRPRPRPWGFPRP	-0.126
RRIRFRPPRLPRPRPRPFERPRP	-0.0442
RRIRNRPPRLPRPRPRPHFFPRP	3.33
RRIRRRPPRLPRPRPRPCRYPRP	-0.0616
RRIRIRPPRLPRPRPRPEVGPRP	0.0138
RRIRVRPPRLPRPRPRPINDPRP	0.0664
RRIRYRPPRLPRPRPRPACMPRP	-0.0495
RRIRIRPPRLPRPRPRPEMEPRP	-0.0895
RRIRVRPPRLPRPRPRPYELPRP	-0.401
RRIRDRPPRLPRPRPRPCTCPRP	-0.198
RRIRKRPPRLPRPRPRPVNPPRP	-0.0659
RRIRVRPPRLPRPRPRPASDPRP	0.347
RRIRARPPRLPRPRPRPWQKPRP	-0.0111
RRIRSRPPRLPRPRPRPPYTPRP	-0.395
RRIRVRPPRLPRPRPRPDKEPRP	0.000945
RRIRLRPPRLPRPRPRPSIQPRP	-1.1
RRIRNRPPRLPRPRPRPKEFPRP	-0.012
RRIRLRPPRLPRPRPRPPYQPRP	-0.0294
RRIRCRPPRLPRPRPRPDNSPRP	-0.53
RRIRKRPPRLPRPRPRPSYKPRP	-0.692
RRIRQRPPRLPRPRPRPEVAPRP	0.00859

Sequence	shrunken log2 fold change
RRIRRRPPRLPRPRPRPPYGPRP	0.0935
RRIRLRPPRLPRPRPRPVMGPRP	0.256
RRIRLRPPRLPRPRPRPRKRPRP	0.314
RRIRIRPPRLPRPRPRPKGSPRP	0.00745
RRIRGRPPRLPRPRPRPNVAPRP	1.15
RRIRERPPRLPRPRPRPEYYPRP	-0.00813
RRIRCRPPRLPRPRPRPYMDPRP	0.0215
RRIRCRPPRLPRPRPRPGDIPRP	0.161
RRIRKRPPRLPRPRPRPFLNPRP	0.00977
RRIRYRPPRLPRPRPRPNQPPRP	-0.0705
RRIRCRPPRLPRPRPRPATNPRP	0.213
RRIRGRPPRLPRPRPRPGPKPRP	0.808
RRIRQRPPRLPRPRPRPCSKPRP	-0.18
RRIRVRPPRLPRPRPRPVPLPRP	-0.121
RRIRKRPPRLPRPRPRPNDNPRP	-0.076
RRIRARPPRLPRPRPRPNYYPRP	-0.414
RRIRLRPPRLPRPRPRPLQMPRP	-0.135
RRIRPRPPRLPRPRPRPGFLPRP	0.167
RRIRWRPPRLPRPRPRPFRWPRP	0.0815
RRIRKRPPRLPRPRPRPSWMPRP	0.93
RRIRNRPPRLPRPRPRPIWCPRP	-0.0833
RRIRKRPPRLPRPRPRPEALPRP	1.67
RRIRYRPPRLPRPRPRPIIEPRP	-0.643
RRIRARPPRLPRPRPRPYVRPRP	-0.377
RRIRPRPPRLPRPRPRPENLPRP	-0.278

Sequence	shrunken log2 fold change
RRIRHRPPRLPRPRPRPWFIPRP	-0.775
RRIRFRPPRLPRPRPRPSLKPRP	-0.196
RRIRQRPPRLPRPRPRPESNPRP	-0.257
RRIRDRPPRLPRPRPRPWCYPRP	0.155
RRIRNRPPRLPRPRPRPGLSPRP	0.486
RRIRDRPPRLPRPRPRPIFSPRP	-0.182
RRIRMRPPRLPRPRPRPIGYPRP	-0.0789
RRIRKRPPRLPRPRPRPRGIPRP	0.0697
RRIRHRPPRLPRPRPRPRWHPRP	0.102
RRIRYRPPRLPRPRPRPKRAPRP	0.28
RRIRARPPRLPRPRPRPQMYPRP	-0.3
RRIRWRPPRLPRPRPRPSSFPRP	-0.00317
RRIRSRPPRLPRPRPRPIGDPRP	0.0153
RRIRERPPRLPRPRPRPLQPPRP	0.468
RRIRYRPPRLPRPRPRPACSPRP	-0.447
RRIRKRPPRLPRPRPRPTCGPRP	0.561
RRIRTRPPRLPRPRPRPNMPPRP	-0.0405
RRIRARPPRLPRPRPRPNIEPRP	0.0171
RRIRVRPPRLPRPRPRPMFSPRP	-0.284
RRIRLRPPRLPRPRPRPVNKPRP	-0.14
RRIRNRPPRLPRPRPRPTYWPRP	-0.101
RRIRTRPPRLPRPRPRPHYAPRP	-0.11
RRIRIRPPRLPRPRPRPGWMPRP	0.0116
RRIRKRPPRLPRPRPRPKGVPRP	0.286
RRIRYRPPRLPRPRPRPHAHPRP	-0.479
